In assay [1] the target is FGFR3 of SEQ ID NO: 25 (Homo sapiens (Human)) (UniProt P22607). Put plainly: cell-based or functional assay.
The target in assay [2] is SNAP-25 peptide comprising amino acids 134-197 of SEQ ID NO: 5 (human). Kind of assay: SPR (BIAcore 3000), peptide amine-coupled to CM5 chip, antibody as analyte, 1:1 fit.
The target in assay [3] is SNAP-25 peptide comprising amino acids 134-206 of SEQ ID NO: 5 (human). Described as above.

In general, Kd refers to the constant that tells how readily two partners part at equilibrium. By koff is commonly meant the rate constant with which the complex falls apart. One may read the kon as the second-order rate constant of association.

FGFR3 of SEQ ID NO: 25 (Homo sapiens (Human)), sequence (P22607 other isoform, or with tags, fused parts or gaps limits assumed): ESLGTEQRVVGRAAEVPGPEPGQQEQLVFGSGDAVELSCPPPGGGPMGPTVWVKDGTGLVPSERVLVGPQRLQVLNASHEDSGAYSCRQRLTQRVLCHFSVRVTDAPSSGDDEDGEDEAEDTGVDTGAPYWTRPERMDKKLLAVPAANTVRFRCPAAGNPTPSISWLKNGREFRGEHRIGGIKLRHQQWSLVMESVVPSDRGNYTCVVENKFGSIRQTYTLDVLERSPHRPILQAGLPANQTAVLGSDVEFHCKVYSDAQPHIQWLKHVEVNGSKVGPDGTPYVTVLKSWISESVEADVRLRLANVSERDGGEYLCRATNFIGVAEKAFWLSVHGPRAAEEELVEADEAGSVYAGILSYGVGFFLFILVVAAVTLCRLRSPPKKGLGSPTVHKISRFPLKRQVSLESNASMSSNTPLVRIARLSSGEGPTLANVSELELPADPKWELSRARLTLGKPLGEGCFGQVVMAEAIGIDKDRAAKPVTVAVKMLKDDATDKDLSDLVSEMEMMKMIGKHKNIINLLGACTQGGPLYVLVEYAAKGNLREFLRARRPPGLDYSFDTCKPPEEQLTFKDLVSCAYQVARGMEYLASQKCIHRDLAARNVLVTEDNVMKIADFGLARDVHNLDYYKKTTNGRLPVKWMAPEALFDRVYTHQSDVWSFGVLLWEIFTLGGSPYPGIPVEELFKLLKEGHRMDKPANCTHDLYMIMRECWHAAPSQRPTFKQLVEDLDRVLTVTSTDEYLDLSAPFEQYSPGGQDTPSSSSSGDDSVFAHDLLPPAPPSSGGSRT

In assay [1], “BoNT/A complex (from UniProt P0DPI0 2-1296) (enzyme)” yielded an EC50 (nM) of SNAP-25 cleavage, Western blot, PC-12 cells transfected with FGFR3 of 0.263 nM and an EC50 (nM) of SNAP-25 cleavage, Western blot, SiMa cells transfected with FGFR3 of 0.0377 nM.

In assay [2], “MC-6050 α-SNAP-25 mouse monoclonal antibody (Research & Diagnostic Antibodies)” yielded a Kd of 0.497 nM, a koff of 0.000882 s⁻¹ and a kon of 1.78e+06 M⁻¹ s⁻¹. Also, in assay [3], the Kd was found to be 19800 nM, the koff is 0.00607 s⁻¹ and the kon came to 306 M⁻¹ s⁻¹.

Take “MC-6053 α-SNAP-25 mouse monoclonal antibody (Research & Diagnostic Antibodies)”: in assay [2], the Kd turned out to be 0.508 nM, the koff amounted to 0.00118 s⁻¹ and the kon was determined as 2.32e+06 M⁻¹ s⁻¹. Moreover, in assay [3], the Kd is 240 nM and the koff worked out at 2.56e-05 s⁻¹.

(Values after patent publication US20120122128A1.)
